Source: patent US5846747A, “Method for detecting glucagon-like peptide-1 antagonists and agonists” (Novo Nordisk A/S, priority 1993, dated 1998)

Molecular target: T1, rat GLP-1 receptor (Rattus norvegicus, UniProt P32301)
T1 construct: expressed in transfected cells; host or cells: COS cells
T1 sequence (P32301 22-463): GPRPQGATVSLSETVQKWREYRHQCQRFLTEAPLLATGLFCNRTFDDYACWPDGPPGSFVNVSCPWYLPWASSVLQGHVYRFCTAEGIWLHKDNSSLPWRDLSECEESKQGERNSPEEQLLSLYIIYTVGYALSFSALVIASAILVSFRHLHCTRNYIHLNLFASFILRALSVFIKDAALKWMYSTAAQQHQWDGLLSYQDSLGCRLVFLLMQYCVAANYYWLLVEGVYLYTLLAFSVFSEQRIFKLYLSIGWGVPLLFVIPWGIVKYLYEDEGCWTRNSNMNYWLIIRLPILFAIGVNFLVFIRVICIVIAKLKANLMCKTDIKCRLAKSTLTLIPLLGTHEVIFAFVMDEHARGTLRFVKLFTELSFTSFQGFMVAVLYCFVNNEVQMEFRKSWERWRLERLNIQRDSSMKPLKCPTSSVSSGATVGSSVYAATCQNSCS
Assay: Displacement of 125I-GLP-1 binding to COS cells transfected with the rat GLP-1 receptor cDNA
Settings: 20 pM 125I-GLP-1, increasing concentrations of cold peptide

| displacement of GLP-1 binding (in words) | Substance |
| --- | --- |
| did not displace binding | gastric inhibitory peptide [GIP] |
| did not displace binding | secreting: peptide hormone of related structure (probably secretin) |
| did not displace binding | vasoactive intestinal peptide [VIP] |
